# B1: ATP-dependent RNA helicase DDX3X (Homo sapiens), O00571 (parent)
# chain: MSHVAVENALGLDQQFAGLDLNSSDNQSGGSTASKGRYIPPHLRNREATKGFYDKDSSGWSSSKDKDAYSSFGSRSDSRGKSSFFSDRGSGSRGRFDDRGRSDYDGIGSRGDRSGFGKFERGGNSRWCDKSDEDDWSKPLPPSERLEQELFSGGNTGINFEKYDDIPVEATGNNCPPHIESFSDVEMGEIIMGNIELTRYTRPTPVQKHAIPIIKEKRDLMACAQTGSGKTAAFLLPILSQIYSDGPGEALRAMKENGRYGRRKQYPISLVLAPTRELAVQIYEEARKFSYRSRVRPCVVYGGADIGQQIRDLERGCHLLVATPGRLVDMMERGKIGLDFCKYLVLDEADRMLDMGFEPQIRRIVEQDTMPPKGVRHTMMFSATFPKEIQMLARDFLDEYIFLAVGRVGSTSENITQKVVWVEESDKRSFLLDLLNATGKDSLTLVFVETKKGADSLEDFLYHEGYACTSIHGDRSQRDREEALHQFRSGKSPILVATAVAARGLDISNVKHVINFDLPSDIEEYVHRIGRTGRVGNLGLATSFFNERNINITKDLLDLLVEAKQEVPSWLENMAYEHHYKGSSRGRSKSSRFSGGFGARDYRQSSGASSSSFSSSRASSSRSGGGGHGSSRGFGGGGYGGFYNSDGYGGNYNSQGVDWWGN
# Variants of: B1
# Details: with pg044_vaccw OPG044, P68466
row,Variant,effect of a mutation on the interaction
1,F84A;F85A,disrupting interaction

# Reference: IntAct's records for PubMed 19913487
